target: T1, CbbR (His6-CbbR) (Acidithiobacillus ferrooxidans ATCC 23270) (UniProt B7JB31); experiment: EMSA; conditions: 12 mM HEPES-NaOH pH 7.9, 4 mM Tris-HCl pH 7.9, 1 mM EDTA, 60 mM KCl, 1 mM DTT, 10% glycerol, 5 ug/ul BSA, 2 ug/ul poly(dI-dC), 30 C, 15 min, 20 pmol DNA
T1 sequence: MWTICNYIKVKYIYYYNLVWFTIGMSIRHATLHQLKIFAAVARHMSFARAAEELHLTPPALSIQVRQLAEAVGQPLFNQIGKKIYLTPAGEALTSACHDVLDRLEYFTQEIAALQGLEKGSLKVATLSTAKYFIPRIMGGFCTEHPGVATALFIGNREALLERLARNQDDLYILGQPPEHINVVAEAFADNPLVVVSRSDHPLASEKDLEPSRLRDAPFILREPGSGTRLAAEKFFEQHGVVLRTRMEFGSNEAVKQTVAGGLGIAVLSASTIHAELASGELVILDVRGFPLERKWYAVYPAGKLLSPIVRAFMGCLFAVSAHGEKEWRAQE

Q: “ACGACGGCGGCAAGCACCGCCAACCACCGAACATCAGACGCGTAGTCACAAACCACCATCACATCAGTGATACGTTATTGAAAAAATAATAACTACTTATTAGCGCTTATGATTCACCCGCACTATAGTTCGATCATCGCTGCAGACGCAGCGATTGCGCCGGGGGCACCGGCGTCGGGCAACTGCATGGAGGTGGCATATGGCCGTCAAGACCTATAACGCGGGTGTGAAGGATTACCGG (double strand) [Pcbb2 (cbb2 operon promoter region)]” was tested. Which binding did it give?
A: binds

Q: Which binding does the source give for “CATTGAACAGGGTCAGCTCCTGGCCATGGCGGGCGCGCAACACCTTGAGCAGATGATGGCTGGCACCTGCCGGCAGCAAAAAGGGGCCGCTTTCGGGCAGGTCGGAATCGGCGTATAAGTGAATGCGCGGCATAGGTTACGATATCGGGCAGGAGAACACAGGTGGGATTATATCATCGTGGCGCTGGCGCAGGTGGCGCATGATCAAAGACTCCGAT (double strand) [Pcbb3 (cbb3 operon promoter region)]” here?
A: binds

Q: “CGGCAGCGAAGATCTTGAGTTGGTGCAAGGTTGCATGACGGATAGACATGCCAATAGTAAACCATACTAAATTATAATAGTAAATATATTTTACTTTTATATAGTTACAGATCGTCCACAATGCTACCCAAGCATTGGAACCTGGCAGGTGGCTCCAATCACCATCGTCTACCATGACACAAGGAGAGCAAGCATGGCCGTAAAAAAGTATGAGGCCGGAG (double strand) [Pcbb1 (cbb1 operon promoter region)]” was tested. Which binding did it give?
A: binds

Q: With “TTTGGGGTGGCAGCAAGAAGTCCTCCTTTCCGGTAGTTGGCCCGGCGCGCTCTTGAGGCCGCACATCCGCCCCGCTTGAGCCAATTTTGCCTTTGCGGTGAGCGGGTTTCACTTCGCTTGTGGCGCTTTCCTTTGATATAGTGCGCGCTGTCCCTGTCGCGCTGCGACAGGTCGGCCTAGCTATTGAGGAGCCCAGTGCATGTCCAAAAGTCATCTTTTCACCTCTGAATCCGTTTCC (double strand) [Pcbb4 (cbb4 operon promoter region)]” as the sequence, how does the binding read?
A: no binding
